Experimental data published in patent US20250099540A1 (INSERM INSTITUT NATIONAL DE LA SANT ET DE LA RECHERCHE M …, published 2025).

Target: T1, purified integrin αIIbβ3 (R&D Systems #7148-A2-025) (UniProt P08514 32-993; P05106 27-718)
T1 construct: One protein preparation was tested in two states; also called GPIIb-IIIa; CD41/CD61
Experiment: SPR single-cycle kinetics, sEng-Strep on SA chip, activated Ca2+/Mn2+-loaded integrin as analyte, 25° C.; apparent value; activated Ca2+/Mn2+-loaded integrin αIIbβ3 as analyte
Protocol: The association between sEng-Strep-tag® II and integrin αIIbβ3 was analyzed by surface plasmon resonance (SPR) on a streptavidin (SA) biosensor (Cytiva) at 25° C. First, we immobilized resonance units (RU) of sEng-Strep-tag® II onto the test flow cell of a SA chip through the C-terminal StrepII-tag to provide a sEng concentration on the surface of ˜10 μM. The reference flow cell was not modified. […] Polysorbate 20 (PS20), either supplemented with 1 mM MnCl2 and 1 mM CaCl2 or after extensive dialysis against EDTA to remove residual divalent cations in the protein preparation. Integrin αIIbβ3 (25 μg per experiment) was resuspended to 0.2 mg/ml (˜1 μM) in the appropriate running buffer before use. Analysis was performed with the BiaEvaluation version 3.0.2 software (Cytiva) and the Anabel webserver.
To investigate this interaction, we analyzed the association between sEng-Strep-tag® II (sEng-Strep) and integrin αIIbβ3 by surface plasmon resonance (SPR) on a streptavidin (SA) biosensor (Cytiva) at 25° C. using single-cycle kinetics. When non-activated integrin αIIbβ3 was flowed over surface-immobilized sEng-Strep, no binding was detected (FIG. 5).

B1: sEng-Strep-tag II (streptavidin-tagged construct of soluble endoglin) (receptor, human, UniProt P17813 26-586, looked up)
chain: ETVHCDLQPVGPERGEVTYTTSQVSKGCVAQAPNAILEVHVLFLEFPTGPSQLELTLQASKQNGTWPREVLLVLSVNSSVFLHLQALGIPLHLAYNSSLVTFQEPPGVNTTELPSFPKTQILEWAAERGPITSAAELNDPQSILLRLGQAQGSLSFCMLEASQDMGRTLEWRPRTPALVRGCHLEGVAGHKEAHILRVLPGHSAGPRTVTVKVELSCAPGDLDAVLILQGPPYVSWLIDANHNMQIWTTGEYSFKIFPEKNIRGFKLPDTPQGLLGEARMLNASIVASFVELPLASIVSLHASSCGGRLQTSPAPIQTTPPKDTCSPELLMSLIQTKCADDAMTLVLKKELVAHLKCTITGLTFWDPSCEAEDRGDKFVLRSAYSSCGMQVSASMISNEAVVNILSSSSPQRKKVHCLNMDSLSFQLGLYLSPHFLQASNTIEPGQQSFVQVRVSPSVSEFLLQLDSCHLDLGPEGGTVELIQGRAAKGNCVSLLSPSPEGDPRFSFLLHFYTVPIPKTGTLSCTVALRPKTGSQDQEVHRTVFMRLNIISPDLSGCTSKG
notes: extracellular domain; Immobilised on a streptavidin (SA) chip through the C-terminal StrepII-tag; not shown: C-terminal Strep-tag II
Kd: < 9 nM | koff: < 0.008 s⁻¹
